Assay results reported in PMC2607196.

Target: CNTF-Rα/CNTF binary complex (human) (UniProt P26441)
Test: SEC

Row | stoichiometry N | Substance
1 | 1 | gp130 (D1-D3) (domain or fragment)
2 | 1 | gp130 (D2-D3) (from UniProt P40189 23-918) (domain or fragment)
